Tests used:
[1] = system: phosphatidylserine-coated beads; assay: Phagocytic uptake of phosphatidylserine-coated latex beads; type: cell-based, human; conditions: 30 minutes incubation, transduced CD8+ T cells
Description: Streptavidin coated latex beads were bound with biotin-phosphatidylserine and used for phagocytosis assays.

[2] = system: HPV+ SCC152 head and neck cancer cells; assay: FACS phagocytosis assay with pHrodo-labeled SCC152 cells; type: cell-based, human; conditions: CellTrace-violet labeled T cells, compared with mock transduced T cells
Method: CellTrace-violet labeled mock transduced, HPV E7-TCR transduced T cells, and HPV E7-TCR/CER29 tandem expression cassette transduced T cells were co-cultured pHrodo-red labeled HPV+SCC152 head and neck cancer cells.
The ability of CER modified-T cells to engulf target cells and recapitulate engulfment-signaling events was evaluated in co-culture assays. T cells were transduced with a nucleic acid encoding HPV E7 specific TCR (polypeptide sequence comprising SEQ ID NO:158) or tandem expression cassette encoding HPV E7 specific TCR+ CER29 (polypeptide sequence comprising SEQ ID NO:169). pHrodo-labeled HPV+ SCC152 head and neck cancer cells were co-incubated with mock transduced T cells, HPV E7 TCR transduced T cells, or HPV E7 TCR/CER29-transduced T cells.

B1: HPV16 E7 TCR: HPV16 E7 specific TCR (WO2015/184228), SEQ ID NO:90; control transduced alone into T cells (protein)
chain: MAPGLLCWALLCLLGAGLVDAGVTQSPTHLIKTRGQQVTLRCSPKSGHDTVSWYQQALGQGPQFIFQYYEEEERQRGNFPDRFSGHQFPNYSSELNVNALLLGDSALYLCASSLGWRGGRYNEQFFGPGTRLTVLEDLRNVTPPKVSLFEPSKAEIANKQKATLVCLARGFFPDHVELSWWVNGKEVHSGVCTDPQAYKESNYSYCLSSRLRVSATFWHNPRNHFRCQVQFHGLSEEDKWPEGSPKPVTQNISAEAWGRADCGITSASYQQGVLSATILYEILLGKATLYAVLVSTLVVMAMVKRKNSRAKRSGSGATNFSLLKQAGDVEENPGPMWGVFLLYVSMKMGGTTGQNIDQPTEMTATEGAIVQINCTYQTSGFNGLFWYQQHAGEAPTFLSYNVLDGLEEKGRFSSFLSRSKGYSYLLLKELQMKDSASYLCASVDGNNRLAFGKGNQVVVIPNIQNPEPAVYQLKDPRSQDSTLCLFTDFDSQINVPKTMESGTFITDKCVLDMKAMDSKSNGAIAWSNQTSFTCQDIFKETNATYPSSDVPCDATLTEKSFETDMNLNFQNLLVIVLRILLLKVAGFNLLMTLRLWSS
modifications: HPV16 E7 TCRbeta chain-P2A-TCRalpha chain
notes: control transduced alone into T cells
uptake of phosphatidylserine-coated latex beads [1]: do not exhibit uptake of latex beads coated with phosphatidylserine | phagocytosis of pHrodo-labeled SCC152 cells by FACS [2]: no difference in phagocytosis between mock-transduced T cells and E7 TCR transduced T cells

From patent publication US20210024607A1, “EXPRESSION VECTORS FOR CHIMERIC ENGULFMENT RECEPTORS, GENETICALLY MODIFIED HOST CELLS, AND USES THEREOF” (CERo Therapeutics, Inc., priority 2018, published 2021)
